# Measurements: patent US20050272649A1, “Conjoint administration of morphogens and ACE inhibitors in treatment of chronic renal failure” (priority 2002, published 2005)
# Entries after “also recorded” stand apart in the source; their conditions may differ.
# B1: OP-1: osteogenic protein-1 (OP-1, also known as BMP-7), morphogen of the OP/BMP family; OP-1 used interchangeably with sBMP-7 (protein)
# chain: STGSKQRSQNRSKTPKNQEALRMANVAENSSSDQRQACKKHELYVSFRDLGWQDWIIAPEGYAAYYCEGECAFPLNSYMNATNHAIVQTLVHFINPETVPKPCCAPTQLNAISVLYFDDSSNVILKKYRNMVVRACGCH
# Assays:
# hypertension = conditions: enalapril 20 mg per day; three-month study; cited from earlier work
# [1] = test system: streptozotocin diabetic Sprague-Dawley rats; type: in vivo; conditions: preliminary / unpublished studies
# [2] = test system: unilateral ureteral ligation in Sprague-Dawley rats; test: Unilateral Ureteral Obstruction (UUO) renal fibrosis model; type: in vivo, rat; conditions: for loss of medullary tissue in the kidney: untreated about 24%
# Excerpt: This UUO model was employed essentially as described (Moller, et al. (1984) Virchows Arch 402: 209-237, the entire contents of which are incorporated herein by reference). Sprague-Dawley rats (about 250 g) underwent either a sham operation (ureter manipulated but not ligated) or unilateral ureteral ligation. Two ligatures, 5 mm apart, were placed in the upper two-thirds of the ureter over a section of polyethylene tubing placed around the ureter (see FIG. 17). The suture tied to obstruct the ureter was removed along with the tubing at day 5, relieving the obstruction. […] Uremia is avoided by the function of the contralateral kidney, which undergoes hypertrophy and hyperplasia as the obstructed kidney is destroyed. The renal injury of UUO is mediated in part through stimulation of renal angiotensin II production, which activates type-1 A-II Receptor and the downsteam TGF-β in a cascade of events culminating in tubulointerstitial inflammation and fibrosis. Inhibition of angiotensin II production by ACE inhibitors (or inhibition of A-II receptors) decreases expansion of the renal interstitium associated with fibrosis.
# The effect of OP-1 on Renal fibrosis has been published (Hruska, et al. (2000) Am J Physiol Renal Physiol 279:F130-43, incorporated herein by reference), and a summarization is as follows. […] Additional effects of OP-1 have been observed in this rat UUO model.
# [3] = solubility of mature OP-1 with casein; type: physicochemical; conditions: addition of 0.2% casein; mature active form of OP-1
# Excerpt: Association of the mature morphogen dimer with a morphogen pro domain results in the pro form of the morphogen which typically is more soluble in physiological solutions than the corresponding mature form. In fact, endogenous morphogens are thought to be transported (e.g., secreted and circulated) in the mammalian body in this form. This soluble form of the protein can be obtained from culture medium of morphogen-secreting mammalian cells, e.g., cells transfected with nucleic acid encoding and competent to express the morphogen. Alternatively, a soluble species can be formulated by complexing the mature, morphogenically active polypeptide dimer (or an active fragment thereof) with a morphogen pro domain polypeptide or a solubility-enhancing fragment thereof. Solubility-enhancing pro domain fragments can be any N-terminal, C-terminal or internal fragment of the pro region of a member of the morphogen family that complexes with the mature polypeptide dimer to enhance stability and/or dissolubility of the resulting noncovalent or covalent complex. Typically, useful fragments are those cleaved at the proteolytic site Arg-Xaa-Xaa-Arg (SEQ ID NO: 30). A detailed description of soluble complex forms of morphogenic proteins, including how to make, test and use them, is described in WO 94/03600 (PCT US 93/07189). […]
Molecule,decrease in diastolic blood pressure (hypertension) [mm Hg],decrease in systolic blood pressure (hypertension) [mm Hg],Enalapril response: dose and route of administration compared [1],loss of medullary tissue in the kidney ([2]; OP-1 at 100 μg/kg),loss of medullary tissue in the kidney ([2]; OP-1 at 300 μg/kg),loss of medullary tissue / medullary necrosis (in words) ([2]; UUO rats),increase in solubility [3] [%]
"CCOC(=O)[C@H](CCc1ccccc1)N[C@@H](C)C(=O)N1CCC[C@H]1C(=O)O [enalapril, N-(1-ethoxycarbonyl-3-phenylpropyl)-L-ananyl-L-proline, reference compound]",7.2,8.2,no difference in the Enalapril response between 5 and 20 mg/kg; also recorded: equally effective as more arduous means of administering Enalapril,–,–,–,–
B1,–,–,–,about 16%,about 13%,reduces tubular atrophy and medullary necrosis; also recorded: significantly reduced the loss of medullary tissue,80
